Measurements: patent US20250177505A1, “CANCER VACCINE COMPRISING EPITOPE OF C-MET AND EPITOPE OF HIF1ALPHA, AND USE THEREOF” (KOREA UNIVERSITY RESEARCH AND BUSINESS FOUNDATION, priority 2022, published 2025)
“Also recorded” adds a separate entry of the source.

Assays:
[1] = tested on: bone marrow monocytes (BMMs); test: Osteoclastogenesis analysis in bone marrow monocytes; type: cell-based, C3(1)-Tag mice; conditions: BMM with M-CSF 30 ng/mL, RANKL 100 ng/mL, IFN-γ 50, 100 ng/mL; vs positive control
Protocol: Primary mouse bone marrow monocytes (BMMs) were isolated from the hind limb bones (two femurs and two tibiae) of 4 to 8 week-old C3(1)-Tag mice. The mouse BMMs were flushed into a 15 ml tube via 8 ml of a serum-free 2 mM EDTA α-MEM medium. A Lymphocyte Separation Medium (LSM; MP Biomedicals; Catalog No. 50494) was dispensed into a new tube, 8 ml of the flushed BMMs were gently added thereon and centrifuged at 1600 rpm for 20 minutes at room temperature. The isolated BMMs were inoculated at 3×10^5 cells/well in a 48-well plate with 0.5 mL of a medium per well and incubated in α-MEM containing 10% FBS and 1% antibiotics.
BMMs in a negative control group were treated with M-CSF (30 ng/mL), BMMs in a positive control group were treated with M-CSF and RANKL (100 ng/mL), and BMMs in an experimental group were stimulated by treatment with M-CSF, RANKL, and IFN-γ(50, 100 ng/mL). On days 1, 3, 5, and 7 of culture, the medium was replaced, and each experimental group was treated with M-CSF, RANKL, and IFN-γ. After 9 days of culture, staining was performed using a TRAP staining kit (KT-008, KAMIYA biomedical company, Seattle, WA, USA) after fixing the cells with 10% formalin. For each well, TRAP-positive (TRAP^+) multinucleated cells (TRAP^+ MNC) were counted. All the experiments were independently repeated three times.

M6-bone cells = test: Western blot of IFN-γ-treated cells; type: cell-based, mouse; conditions: 100 ng/ml IFN-γ, 18 hours
Protocol: M6 and M6-bone cells were stimulated with 100 ng/ml recombinant mouse IFN-γ and cultured in a medium containing 1% FBS for 18 hours. The cells were lysed in a buffered mixture of a PRO-PREPTM protein extraction solution (iNtRON Biotechnology, 17081) and a phosphatase inhibitor cocktail (Gen DEPOT, p3200-001). Protein concentration was measured using the Bradford assay (Bio-rad, 500-0006, Hercules, CA, USA). 30 μg of the protein was separated by SDS-polyacrylamide gel electrophoresis and transferred to a PVDF membrane (10600023), and then the membrane was blocked with Tris-buffered saline containing 0.05% Tween 20 and 5% non-fat milk powder for 1 hour. The PVDF membrane was incubated overnight at 4° C. with primary antibodies. HIF1α (NB100-105, Novusbio), c-MET, Akt (Cat #9272), and p-Akt (Cat #9271) antibodies were purchased from Cell Signaling Technology (Beverly, MA, USA), and β-actin (Cat #A5316) was purchased from Sigma (Saint Louis, MO, USA). Subsequently, a horseradish peroxidase-conjugated secondary antibody was cultured at room temperature for 1 hour. Immunoreactive bands were detected with a chemiluminescent reagent (Cat #RPN2106).

B1: IFN-γ: recombinant mouse IFN-γ, key cytokine of T-helper type 1 immunity (protein, UniProt P01580 23-155, looked up)
Interferon gamma: HGTVIESLESLNNYFNSSGIDVEEKSLFLDIWRNWQKDGDMKILQSQIISFYLRLFEVLKDNQAISNNISVIESHLITTFFSNSKAKKDAFMSIAKFEVNNPQVQRQAFNELIRVVHQLLPESSLRKRKRSRC
osteoclastogenesis in vitro [1]: completely inhibited; also recorded: inhibits | Expression of c-MET (M6-bone cells): decreased | Expression of p-Akt (M6-bone cells): decreased
